These results are taken from publication PMC10214526, “Semisynthetic LC3 Probes for Autophagy Pathways Reveal a Noncanonical LC3 Interacting Region Motif Crucial for the Enzymatic Activity of Human ATG3” (ACS Central Science, 2023).

Sequence of ATG3 C1, Q9NT62 D104A (Q9NT62 whole entry D104A): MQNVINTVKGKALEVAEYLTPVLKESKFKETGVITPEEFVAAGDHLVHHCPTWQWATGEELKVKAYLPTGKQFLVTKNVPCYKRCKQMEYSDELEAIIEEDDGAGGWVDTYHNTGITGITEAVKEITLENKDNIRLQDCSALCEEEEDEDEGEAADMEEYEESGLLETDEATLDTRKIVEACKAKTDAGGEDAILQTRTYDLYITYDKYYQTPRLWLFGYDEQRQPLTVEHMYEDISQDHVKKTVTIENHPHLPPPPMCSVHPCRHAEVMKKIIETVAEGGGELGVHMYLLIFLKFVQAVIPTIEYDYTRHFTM
Sequence of ATG3 C1, Q9NT62 E99A (Q9NT62 whole entry E99A): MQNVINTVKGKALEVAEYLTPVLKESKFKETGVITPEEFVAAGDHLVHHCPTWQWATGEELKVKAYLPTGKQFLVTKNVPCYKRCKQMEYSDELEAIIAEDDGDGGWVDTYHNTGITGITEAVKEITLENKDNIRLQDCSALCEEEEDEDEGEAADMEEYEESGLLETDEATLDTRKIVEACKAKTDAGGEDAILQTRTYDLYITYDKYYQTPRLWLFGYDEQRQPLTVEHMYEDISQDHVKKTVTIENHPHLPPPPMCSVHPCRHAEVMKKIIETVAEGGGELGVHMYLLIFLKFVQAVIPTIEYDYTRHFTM
Sequence of ATG3 C1, Q9NT62 I98A (Q9NT62 whole entry I98A): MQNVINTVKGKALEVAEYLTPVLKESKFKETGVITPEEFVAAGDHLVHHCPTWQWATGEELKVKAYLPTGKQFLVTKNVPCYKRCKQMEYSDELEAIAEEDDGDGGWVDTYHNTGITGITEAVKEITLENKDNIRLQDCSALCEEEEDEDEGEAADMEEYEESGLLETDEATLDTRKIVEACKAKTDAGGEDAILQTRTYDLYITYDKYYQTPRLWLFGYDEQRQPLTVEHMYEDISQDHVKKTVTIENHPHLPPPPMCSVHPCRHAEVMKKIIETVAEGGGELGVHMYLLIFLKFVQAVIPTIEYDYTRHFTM
Sequence of ATG3 C1, Q9NT62 I97A (Q9NT62 whole entry I97A): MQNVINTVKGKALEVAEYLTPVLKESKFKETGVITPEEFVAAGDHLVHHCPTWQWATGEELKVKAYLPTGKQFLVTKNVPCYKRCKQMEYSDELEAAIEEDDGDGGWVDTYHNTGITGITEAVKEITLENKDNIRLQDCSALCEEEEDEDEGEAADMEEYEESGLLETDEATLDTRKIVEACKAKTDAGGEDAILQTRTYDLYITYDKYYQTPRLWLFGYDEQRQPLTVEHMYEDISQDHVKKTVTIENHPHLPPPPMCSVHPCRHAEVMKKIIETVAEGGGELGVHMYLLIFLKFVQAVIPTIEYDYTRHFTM
Sequence of ATG3 C1, Q9NT62 V108A (Q9NT62 other isoform, or with tags, fused parts or gaps V108A): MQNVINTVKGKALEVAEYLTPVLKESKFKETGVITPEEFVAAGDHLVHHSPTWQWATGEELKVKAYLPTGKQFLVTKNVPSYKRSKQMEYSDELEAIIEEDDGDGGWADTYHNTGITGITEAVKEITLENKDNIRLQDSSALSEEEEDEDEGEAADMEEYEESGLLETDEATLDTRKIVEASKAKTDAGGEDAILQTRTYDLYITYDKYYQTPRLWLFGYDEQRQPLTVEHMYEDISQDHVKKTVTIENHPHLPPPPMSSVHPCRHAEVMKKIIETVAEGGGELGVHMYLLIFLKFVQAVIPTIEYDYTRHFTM
Sequence of ATG3 C1, Q9NT62 Y90A (Q9NT62 whole entry Y90A): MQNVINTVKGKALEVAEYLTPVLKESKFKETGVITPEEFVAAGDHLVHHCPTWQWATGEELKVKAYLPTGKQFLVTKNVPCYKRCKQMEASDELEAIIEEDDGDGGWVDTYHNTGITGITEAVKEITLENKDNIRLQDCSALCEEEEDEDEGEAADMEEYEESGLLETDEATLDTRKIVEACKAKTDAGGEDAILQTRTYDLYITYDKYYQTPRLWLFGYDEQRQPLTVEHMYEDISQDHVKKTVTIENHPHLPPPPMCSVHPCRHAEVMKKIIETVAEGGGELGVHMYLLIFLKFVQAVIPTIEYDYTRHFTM
Sequence of ATG3 C1, Q9NT62 E95A (Q9NT62 whole entry E95A): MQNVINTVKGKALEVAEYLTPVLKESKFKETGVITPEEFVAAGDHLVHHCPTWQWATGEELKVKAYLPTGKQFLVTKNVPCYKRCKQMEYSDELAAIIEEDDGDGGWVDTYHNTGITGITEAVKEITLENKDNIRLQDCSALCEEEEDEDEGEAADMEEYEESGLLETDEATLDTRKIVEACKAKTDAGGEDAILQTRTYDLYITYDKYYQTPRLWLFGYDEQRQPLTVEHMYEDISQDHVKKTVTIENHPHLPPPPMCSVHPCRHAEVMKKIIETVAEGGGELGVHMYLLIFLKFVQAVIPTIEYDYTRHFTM
Sequence of ATG3 C1, Q9NT62 D92A (Q9NT62 whole entry D92A): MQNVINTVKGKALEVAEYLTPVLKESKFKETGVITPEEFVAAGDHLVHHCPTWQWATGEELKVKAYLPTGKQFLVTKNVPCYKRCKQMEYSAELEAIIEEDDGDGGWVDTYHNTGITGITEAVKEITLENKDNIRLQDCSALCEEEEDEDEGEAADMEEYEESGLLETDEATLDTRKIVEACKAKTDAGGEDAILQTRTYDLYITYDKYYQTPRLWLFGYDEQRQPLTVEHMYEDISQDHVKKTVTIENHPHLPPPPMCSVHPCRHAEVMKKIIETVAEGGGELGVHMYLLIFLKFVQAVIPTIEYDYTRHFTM
Sequence of ATG3 C1, Q9NT62 D109A (Q9NT62 other isoform, or with tags, fused parts or gaps D109A): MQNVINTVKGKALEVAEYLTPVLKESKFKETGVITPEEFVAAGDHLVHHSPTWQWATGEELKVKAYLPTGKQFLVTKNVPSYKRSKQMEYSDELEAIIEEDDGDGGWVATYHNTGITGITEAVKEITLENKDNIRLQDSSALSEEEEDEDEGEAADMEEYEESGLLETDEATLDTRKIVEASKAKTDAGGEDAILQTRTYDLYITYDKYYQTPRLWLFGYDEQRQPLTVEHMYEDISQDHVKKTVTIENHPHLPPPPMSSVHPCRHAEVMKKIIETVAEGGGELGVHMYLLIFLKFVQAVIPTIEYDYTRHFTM
Sequence of ATG3 C1, Q9NT62 Y111A (Q9NT62 whole entry Y111A): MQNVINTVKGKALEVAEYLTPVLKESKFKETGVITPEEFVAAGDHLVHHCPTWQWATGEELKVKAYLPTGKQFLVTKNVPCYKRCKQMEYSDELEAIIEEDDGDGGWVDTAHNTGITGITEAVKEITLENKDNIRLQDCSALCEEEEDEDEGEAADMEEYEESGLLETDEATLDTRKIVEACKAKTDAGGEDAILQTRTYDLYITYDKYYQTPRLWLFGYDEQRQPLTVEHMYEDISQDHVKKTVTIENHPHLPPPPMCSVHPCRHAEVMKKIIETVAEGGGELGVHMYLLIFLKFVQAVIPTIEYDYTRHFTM
Sequence of ATG3 C1, Q9NT62 D102A (Q9NT62 whole entry D102A): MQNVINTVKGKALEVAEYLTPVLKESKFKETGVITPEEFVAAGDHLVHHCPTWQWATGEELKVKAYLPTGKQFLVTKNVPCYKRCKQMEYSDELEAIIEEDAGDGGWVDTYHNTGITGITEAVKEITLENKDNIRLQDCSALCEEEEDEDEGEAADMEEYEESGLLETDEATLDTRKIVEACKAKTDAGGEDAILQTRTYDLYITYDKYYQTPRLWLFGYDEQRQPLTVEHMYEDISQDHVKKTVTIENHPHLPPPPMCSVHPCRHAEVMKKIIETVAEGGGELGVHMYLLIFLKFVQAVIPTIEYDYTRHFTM
Sequence of ATG3 C1, Q9NT62 T110A (Q9NT62 other isoform, or with tags, fused parts or gaps T110A): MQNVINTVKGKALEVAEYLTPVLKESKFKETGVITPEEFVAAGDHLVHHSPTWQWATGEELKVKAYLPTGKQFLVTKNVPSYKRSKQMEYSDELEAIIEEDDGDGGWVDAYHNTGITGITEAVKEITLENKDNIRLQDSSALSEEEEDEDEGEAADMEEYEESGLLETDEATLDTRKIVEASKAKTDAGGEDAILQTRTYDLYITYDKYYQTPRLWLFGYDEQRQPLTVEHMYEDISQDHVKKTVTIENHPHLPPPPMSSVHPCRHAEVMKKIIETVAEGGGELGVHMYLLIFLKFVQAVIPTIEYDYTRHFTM
Sequence of ATG3 C1, Q9NT62 W107A (Q9NT62 whole entry W107A): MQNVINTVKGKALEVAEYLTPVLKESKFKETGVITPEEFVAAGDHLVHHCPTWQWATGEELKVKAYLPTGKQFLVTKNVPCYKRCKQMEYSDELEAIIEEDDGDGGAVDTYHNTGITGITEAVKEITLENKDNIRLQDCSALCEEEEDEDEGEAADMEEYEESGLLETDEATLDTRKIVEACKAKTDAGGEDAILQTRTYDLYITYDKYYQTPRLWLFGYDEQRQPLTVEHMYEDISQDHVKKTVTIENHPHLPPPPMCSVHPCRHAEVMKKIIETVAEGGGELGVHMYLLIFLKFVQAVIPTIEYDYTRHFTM

The target in this test is GABARAP(ΔG116)–NHNH methyl-fumarate 2 (UniProt O95166). Put plainly: cross-linking assay with probe 2, Coomassie SDS-PAGE gel densitometry. As to conditions: GABARAP probe 2 15 μM; ATG3 C1 alanine variants 15 μM; 30 min; parent: est. 1.0; read off a plot.
Sequence of GABARAP(ΔG116)–NHNH methyl-fumarate 2 (O95166 1-115, stated change not applied): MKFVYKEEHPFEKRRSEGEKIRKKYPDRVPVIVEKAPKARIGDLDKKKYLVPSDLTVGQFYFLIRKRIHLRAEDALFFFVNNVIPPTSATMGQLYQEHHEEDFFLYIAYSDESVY
Consider ATG3 C1, Q9NT62 D92A, for which the ratio to parent came out at 1. Turning to ATG3 C1, Q9NT62 D102A, the ratio to parent was 0.38. As for ATG3 C1, Q9NT62 D104A, the ratio to parent was determined as 0.55. The value for ATG3 C1, Q9NT62 D109A was 1.4. As for ATG3 C1, Q9NT62 E95A, the figure is 0.35; as for ATG3 C1, Q9NT62 E99A, 0.52; as for ATG3 C1, Q9NT62 I97A, 0.31. Regarding ATG3 C1, Q9NT62 I98A, the ratio to parent was found to be 0.74. With ATG3 C1, Q9NT62 T110A, the ratio to parent was 0.8. As for ATG3 C1, Q9NT62 V108A, the figure is 0.38; as for ATG3 C1, Q9NT62 W107A, 0.17; as for ATG3 C1, Q9NT62 Y90A, 0.61. The value for ATG3 C1, Q9NT62 Y111A was 0.69.
